Results on one substance are retold here after PMC10760178.

A word on the Kd: it is a measure of binding affinity in units of concentration. A lower Kd goes with a tighter complex.

The assay has as its target Catabolite Repressor Activator protein (Cra), wild-type, untagged (E. coli) (UniProt P0ACP1). Briefly: BLI. In general terms: BLI is a label-free optical method that tracks binding on a fibre tip over time.
Chain of UniProt P0ACP1 (P0ACP1 whole entry): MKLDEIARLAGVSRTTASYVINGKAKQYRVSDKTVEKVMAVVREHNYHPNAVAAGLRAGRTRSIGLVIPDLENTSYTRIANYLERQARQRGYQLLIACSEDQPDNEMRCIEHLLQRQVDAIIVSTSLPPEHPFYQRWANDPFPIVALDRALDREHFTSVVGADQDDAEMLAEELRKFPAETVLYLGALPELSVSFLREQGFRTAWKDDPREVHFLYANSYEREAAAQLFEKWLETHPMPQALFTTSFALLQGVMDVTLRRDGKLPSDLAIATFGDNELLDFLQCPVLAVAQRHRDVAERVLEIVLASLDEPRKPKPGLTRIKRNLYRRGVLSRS

Take “His-tagged FruK (pET3a) for BLI (from UniProt P0AEW9 1-312) (enzyme)”: the Kd was 2.1 nM.
